Laboratory results as given in the DeepSol protein solubility set.

Test: soluble on expression in E. coli; label from the status in PepcDB or PDB records

Sequence	soluble on expression in E. coli
MENESKTINIELPEEIAQGNYCNLCIVMHSPSEFVLDFIRMVPNRDTARVQNRIILTPDNAKRLLTTLSDNIHRYEVEHGEIHTEQRVSDATFTFPTKIKGEA	soluble
LKQLLALDKNIERMECFDISHTQGEATVASCVVFDTEGPRPSEYRRFNIEGITPGDDYAAMEQAVTRRFKRLIDVQLLPDVLIIDGGKGQVSIVKRVLTSLGVEDITLLGVSKGPSRKAGWEKLILVNENREFVLPEDSKALHLLQHIRDEAHRFAI	not soluble
MTEAQLTLPTTKLSPTQKTQFIKLEKKLRRNVGQAIAQYNMIEDGDKVMVCLSGGKDSYAMLSILMLLKESAPIHFDIIAVNLDQKQPGFPEHILPEYLDKLGIEYHIVEEDTYGIVKEKVPEGKTTCSLCSRLRRAVLYKAAKKIGATKIALGHHRDDMIETLMLNMFYGGKMKAMPAKLVSDNGEHVVIRPLAFCKESELIQYSELKHFPIIPCNL	not soluble
MSLDSWSRNFELLINSRTPLIWIRTKEEERLYKVIDKSCKKLNIKRFVSWDCVNGIKGVLNENGKFSNNPMGVLNWIKAQTSEIPTILLVRDFHKFYDDPSISRTIKELSSSLRETNNNLILSSHILPSSEELDDLITILNLPLPDLSELTALIKKIAFNTDSDLSEQDLNELAIASSGLSEIKVKQVTAKALAQRGKISKFDIKDMLEEKKQVIARSEGHHHHHH	soluble
MGSDKIHHHHHHMLIAQVTDIHLGFEPDSPDEFNRQRLDRVLAELAAMDPRPDLLLATGDLIDRGDRESYERLRDAFSNLPFPVHYALGNHDERETFSAVFPEAAFTDGFLQYIVDAGPLRIIVLDTLEEGRHGGAFCDVRARWLKARLDEAPDTRTLIVQHHPPVEVGIAWMNTDPAEPWVERLGQCLRGRTNVVGVVCGHIHRAITTAWEGTVVATCPSTAPQVALDLRPIDPDVPDQRNLIIADPPGYALHWFNGRELITHWDTAEDHQVLARYDANLQGMIQHMLAERPGAQAAE	not soluble
MIIIGIDEAGRGPVLGPMVVCAFAIEKEREEELKKLGVKDSKELTKNKRAYLKKLLENLGYVEKRILEAEEINQLMNSINLNDIEINAFSKVAKNLIEKLNIRDDEIEIYIDACSTNTKKFEDSFKDKIEDIIKERNLNIKIIAEHKADAKYPVVSAASIIAKAERDEIIDYYKKIYGDIGSGYPSDPKTIKFLEDYFKKHKKLPDIARTHWKTCKRILDKSKQTKLIIE	soluble
MAHHHHHHMKGVKFRDNFVKLKEEGPRNATTTNFYGSYFLSENEHLFDINEFEKNLEMKMHKNEENLLILEVKNLNVSIANALRRIMLAEVPTIAIEKVNIFQNTGIIADEILCHRLGLIPFKFDADLINFKEEYEKYNHLNCFCFKLHVKFTKKAGSSETCQSIYSRDLKWCPINEHQKARFQKNPPRVVDDNILITKLSNGQEIELICFLEKGIGKTHAKWSPVCTAVYKMYPAFSFNTCEKFTQEEKKDLVNICPKNVFDVEDSDTLVAKNPLNCSSCRVCIEKYPKKISFEKVKNHFIFTIESTGCFSSADIFRKALLILKDKVVSVKEVLEDQTKA	not soluble
MPAKDVQICPIAVDTTVFRSRTWDRLKFEIEYGLQRGTTANSYLISADKIALFDPPGESFTDNFVGTLIQRLDLNSLDYVILGHVNANRAHTLKLLLSLAPQATIICSNPAAQNLEKLLADAEVNNPIQVMKGNDHLDLGRGHELTFIPTPSPRYPGQLCTYDPRTEILFTDKLFGAHVCGDQVFDEGWTIYQEDRRYYFDCLLAPAAAQVSAALNKLEAYPAQTYAPSHGPLVRYGLRELTRNYQQWLSEQQAQALEHHHHHH	not soluble
PKQVGNAQHLYDNYDLVPAMIAEVNPRDMVVMALVNTNVDPTLPPRWALATRNITAIPGIEGDTRKVGTRIPAVAVTGQRSVGNQDSWDQISPMPIAWATPDSSVIARAESTIPSEQWTTLSKNLNKLDQVRETKFDLLEL	soluble
MYKWLLSVLLVLMSTVVHAADCFDLAGRDYKIDPDLLRAISWKESRNRANAVGINPVTGYGSGLMQVDSQHFNELARYGIKPEQLVSDPCLNIYTGAYYLAIAFRKWGVSWTAVGAYNAGFKKTPLQDARRLDYATDVHRIWIAIKQSKTRQTPAR	not soluble
MKRKIIVACGGAVATSTMAAEEIKELCQSHNIPVELIQCRVNEIETYMDGVHLICTTARVDRSFGDIPLVHGMPFVSGVGIEALQNKILTILQG	soluble
MGDEYMDDDEDYGFEYEDDSGSEPDVDMENQYYTAKGLRSDGKLDEAIKSFEKVLELEGEKGEWGFKALKQMIKITFGQNRLEKMLEYYRQLLTYIKSAVTKNYSEKSINAILDYISTSRQMDLLQHFYETTLDALKDAKNERLWFKTNTKLGKLFFDLHEFTKLEKIVKQLKVSCKNEQGEEDQRKGTQLLEIYALEIQMYTEQKNNKALKWVYELATQAIHTKSAIPHPLILGTIRECGGKMHLRDGRFLDAHTDFFEAFKNYDESGSPRRTTCLKYLVLANMLIKSDINPFDSQEAKPFKNEPEIVAMTQMVQAYQDNDIQAFEQIMAAHQDSIMADPFIREHTEELMNNIRTQVLLRLIRPYTNVRISYLSQKLKVSQKEVIHLLVDAILDDGLEAKINEESGMIEMPKNKKKMMVTSLVVPNAGDQGTTKSDSKPGTSSEPSTTTSVTSSILQGPPATSSCHQELSMDGLRVWAERIDSIQSNIGTRIKF	not soluble
MAHHHHHHMSELQAAAGVFGRGTAAGDAIYRCYARPTKESTLDPELLARLQKMRLEREAAEAALFRPKPVPKSKAMISRPRVGLGRRISEEEIARRRLDALPHKKREESIQRELRAFGRPSLLPPLYKSPPITVAEKERLRQIFQFGELPPKPLNFTGANRVRYALIDRRFRLKDRFETLKKHVDALREELRQLRQQPQKSALPETVADGKGNENEIIPSGAEIIRRFHRRDPVMALERRMLEQELTTSIGEVLQEMKEIDFDLRQLDENEAKRYIPKP	not soluble
MVETPPAWVLLKRARERIYTLPPDFPGFRARLGLCLDGVWYVGAVEAEGFAPKTLGLFGEAGAIAEKELGSLLGHRRPAPFEEGEGRYPMRLFAEGPLGTGIALEDPFRSRIWVKEGRLALIERHLPEGSFRIHLETWREVGERLLPHRFLLVHRDPRGHLLKVERFRDEYAQVGPYWLPVEREVVVEGEGLGVLVLRLEEVEVKG	soluble
MNRYRQLAELFKTQIQQNTWRAGEKLPSVRVTSRNHSVSAGTVLQAYQLLEAQGWVAAKPQSGYFVTAELDRLEPSPPATSVYRSNINDELYDYLKNQASPDAMKFGSAFPDPALFPLDALNRNLASSGRKMGPETLLDNLPPGSESLRRLIAQRYIQQGMVLTHDDIVITSGALEALNLSLQAVTQPGDTIVVESPTFYGALQAIERLGLKAIEISVDPRIGHSLQQIEAAFTDHDVRACWLMTNFHNPTGMSLNDEQKQRIVELADKHDVYLIEDDVYSELYFSNKKPSSLRTFDTQDRVLHCGSFSKSLCPGYRLGWVVNKRFNEHLQKLQLISTLSGSAPIQQGIAHYLQNDSYDNHLRKLRKNLEQRQSTFIELIGKYFPKSIHYTQPEGGYFLWVELPESKCGKAIYQKLLEDNITVAFGKLFSVGTDYENYLRLNTSLPCNDELEEAVKTIGELLH	not soluble
MGSDKIHHHHHHMNNTPANRLQPKHFTLIKAIGDLGQLSLAAGQVSMTQPAASRMLAEIERIVGAAVFLRTPKGMEATEVGAALVRRSEILLQEMREAMREVDAIKRGASGTVSVGAVTGGALGYIVPAISTLKAEARTADIYVDVAPSGTLISNLVSGQFDFVLGRIPVGVDARQFHIRHARTEEVDLIVHQSHPLANSTDLRMTDLLHFPWVMQGPGAPVRQAVENAFIDAGTTLPVDVVNTTSLLVMIAMIAASNAITPLSREVSDLLCRQTTGAGLCRLKIRRPIIVLPYHLISMKNRHMSTLAARLQDLVLQEFITR	not soluble
MAHHHHHHMNFIKAEEKDKCAEEQGVKLFYLKSCKEKEYELHMDVCQAIVEDCPLLEVYVVSRGDGSSESGAFELYDNGQLIKKFTNCNVSTVTSFIRKYAQKGGSSPMEATQSGELNSTGKTDTVKKIEHLIGSNKIILFMKGSKTFPQCKFSNAVVFMLNSCKVKYTTYDILQDEDVRSELKIYSNWPTYPQLYINAELIGGHDIIKSMYDSGELRDVVPQDCFEG	soluble
MPPYTVVYFPVRGRCAALRMLLADQGQSWKEEVVTVETWQEGSLKASCLYGQLPAFQDGDLTLYQSNTILRHLGRTLGLYGKDQQEAALVDMVNDGVEDLRCKYISLIYTNYEAGKDDYVKALPGQLKPFETLLSQNQGGKTFIVGDQISFADYNLLDLLLIHEVLAPGCLDAFPLLSAYVGRLSARPKLKAFLASPEYVNLPINGNGKQ	soluble
MGSDKIHHHHHHMPCMTLLRRAFAIPLLLMVSSGLALAERPAENQKIALQMYTLRSVSTLDEQFSMAHNAGFKAVELVGTHGISASEMKGLLGKYQLKAIAAHVQLGELKSNMAEVVAFNKAIGNRMIIVPWLNVEDRPNSAEGWQRFGTEMNDLGRELKKQGMQLAYHNHNFEMKKYRGKTALEIMLDAAEPENLMLEMDVAWVSLGGQDPARLLRQYKGRIYSIHAKDNTSIGIRDDEMNFAPPGEGILAWEEILPAAAKAGTQWFVAEHDLPKDPQAIISAAYQSLYEKLSKVKSK	not soluble
MPIPNNPGAGENAFDPVFVKDDDGYDLDSFMIPAHYKKYLTKVLVPNGVIKNRIEKLARDVMKEMGGHHIVALCVLKGGYKFFADLLDYIKALNRNSDRSIPMTVDFIRLKSYCNDQSTGDIKVIGGDDLSTLTGKNVLIVEDIIDTGKTMQTLLSLVRQYNPKMVKVACLFIKRTPLWNGFKADFVGFSIPDHFVVGYSLDYNEIFRDLDHCCLVNDEGKKKYKATSL	soluble
GPGSMDRSVAESIRQQSDDLRDELKELEQWEDAMQAREMAKAQRKVPLPTSVAAAEPPIRGTVPSLKEAIRQQQQQARATGTSGDTAAEAIADPIQQAKDKGNVLFQSGHLQEAVAAYTVGIDLDPASATTHVLYANRAMCYLKLGQWTAAEKDATTCVHMNTGYAKAYYRRAVARKQLGKLREARADLEAVLALAPKDVSAQQEMESVTKALQAKRAAESQATTTATTTKKKRIVIEEVDSEGDEAAAEAPATSASKLSTEEEELHQACIEEDMRRLAAARKANEEQVRQEAQREAAAQAKRQRRHERVEIIEEAEHSPAEKKKMAPSPATSSPVVEQTPPLSTSSPPSSSSPSPTSAATRPRARPPIAKESLTAPKSFSEFERRFRELVQQPDLRDHYVRLLDPATMAKLFGSNMSPEMLLGILQAIKTFNATTALQYAKGLCQVSRVEDVALFFDAQEKAVVQDVLDLLRSAPGTPAKDIQQIERKLKPL	soluble
MGSDKIHHHHHHMSTDCLQELENALGRAALVRDEDRALYDVDWRGHLHGRSLAVVCPSRVEDVGETIRIARRHQISIVPQGGNTGLAGGATPDSTGRQLVLCTRRLNRIRGVDLLGNFITVDAGCILQNVQDAAQSHDRLFPLSLAAQGSCTIGGNLATNAGGNAVLRYGNMRELCVGIEAVDAQGRLIGDLKCVRKNNTGYSLRDLLIGSEGTLGIITGAALRLFPRPFAYATALVKCADIDHALQVLGILRAHCADFLSGVEWMSNGSLSNVSKQFLDTRIPPGFDESCLCLVELSGSTPPGLLDDILASALDQAITSGFAADAALASNLAERDAFWALRERLPLAEARCRSLKHDVSLPAGNMSEFVAHLEGYLSSMTLRCAWAGFGHLGDGNLHANVLIPDTMPDALCDCIDEFVYSEVLRLEGSISAEHGIGSRKNDLLHRALDVASLQAMQAVRNALDPHNLFNPGKLLFN	not soluble
